Results on one molecule are retold here after US12397037B2, “Methods and compositions for immunomodulation” (CHILDREN'S MEDICAL CENTER CORPORATION, priority 2014, dated 2025).

One experiment has as its system RhoA. Briefly: RhoA activity, rhotekin pull-down, U87MG cells. In kind it is cell-based, human. As to conditions: SEMA3F 640 ng/ml, 10 minutes. As for the experimental part:
FIG. 30A depicts U87MG cells treated with SEMA3F (640 ng/ml), rapamycin (10 nM) or Torin 1 (10 nM) for 30 minutes. Subsequently, cells were stained with Alexa Fluor 488 phalloidin and Hoechst 33342 to identify F-actin cytoskeleton stress fibers and cellular nuclei, respectively. […] The scale bar indicates 20 μm. FIG. 30B depicts U87MG cells transiently transfected with a pcDNA3.1 empty vector or with a wild type (WT) mTOR plasmid and after 18 hours treated with SEMA3F (640 ng/ml) for 30 minutes. Cells were stained as described above in FIG. 30A. Representative cellular staining is shown; bar graph represents the number of fibers/cell (mean±SD) from 3 independent experiments. FIG. 30C depicts U87MG cells transfected with control siRNA or with raptor- or rictor-specific siRNAs (20 nM). […] The number of stress fibers was evaluated in 3 independent experiments and shown as the mean±SD. […] After 18 hours, the cells were treated with SEMA3F (640 ng/ml) for 10 minutes and RhoA activity was evaluated. FIG. 30E depicts U87MG cells transfected with control siRNA or with raptor- or rictor-specific siRNAs (20 nM), were treated with SEMA3F (640 ng/ml) for 10 minutes and RhoA activity was analyzed. […]
RhoA activity (39) was measured using the rhotekin pulldown assay in U87MG cells transfected with the mTOR overexpression construct (FIG. 30D). […]

The test system of another experiment is VEGF promoter. Nature of the experiment: VEGF promoter luciferase assay in U87MG cells. The experiment is classed as cell-based, human. As to the method:
FIGS. 31A-31B depict U87MG cells transiently co-transfected with a full-length human VEGF promoter luciferase plasmid and a pGL4.74 [hRluc/TK] plasmid as an internal control. Cells were treated with SEMA3F (640 ng/ml for 30 minutes) prior to the addition of DFO (250 μM) or the culture of cells in a hypoxia chamber (1% 02). After 18 hours, VEGF promoter luciferase activity was analyzed. FIG. 31C depicts a graph of U87MG cells transiently cotransfected with our VEGF promoter luciferase and pGL4.74 [hRluc/TK] plasmids and with either a pcDNA3.1 empty vector or our constitutively active Akt (2DAkt). The cells were treated with SEMA3F for 30 minutes prior to the addition of DFO. After 18 hours, VEGF promoter luciferase activity was analyzed. FIG. 31D depicts a graph of parental U87MG cells treated with SEMA3F, rapamycin (10 nM), Torin 1 (10 nM) alone or in combination as indicated for 30 minutes prior to the addition of DFO, and culture supernatants were collected after 18 hours; VEGF protein levels were analyzed by ELISA. In each panel data are representative of 3 independent experiments. Bar graphs represent the mean±SD of n=3 experiments performed in triplicate, *, p<0.01 vs. control.
SEMA3F inhibits hypoxia-induced production of VEGF via the mTOR pathway. The local expression and regulation of VEGF is key to many physiological and pathological processes (40, 41). These findings indicate that SEMA3F can target the transcriptional activation of VEGF via its ability to target mTOR kinase activity (36, 42). To test the effect of SEMA3F on the regulation of VEGF expression, U87MG cells were transfected with a full-length 2.6 kb VEGF promoter-luciferase construct and exposed to the hypoxia mimetic agent desferrioxamine (DFO) or hypoxia (1% 02). […] To test the relative effect of SEMA3F on mTORC1/C2, U87MG cells transiently co-transfected with the 2DAkt construct and the full length VEGF promoter reporter construct, and the cells cultured in the absence or presence of SEMA3F. […] Finally, the effect of SEMA3F on the secretion of VEGF into conditioned media (by ELISA) was determined in the absence or presence of DFO.
Transfection and Luciferase assay: U87MG cells were transiently transfected with plasmid constructs (pcDNA3.1, WT mTOR, 2DAkt, VEGF luciferase reporter plasmid or pGL4.74 [hRluc/TK]) as indicated using Lipofectamine 2000 reagent (Life Technologies) according to the manufacturer's instructions. After 18 hours, cells were treated as outlined in each experimental design. VEGF promoter activity was analyzed using a Dual-Luciferase Reporter Assay System (Promega), and luciferase activity was normalized by Renilla luciferase as an internal control.

B1: SEMA3F: Human recombinant full-length His-Myc-tagged SEMA3F, secreted by transfected 293T cells and purified; class 3 semaphorin, NRP-2 ligand (protein, listed as Homo sapiens)
chain: MLVAGLLLWASLLTGAWPSFPTQDHLPATPRVRLSFKELKATGTAHFFNFLLNTTDYRILLKDEDHDRMYVGSKDYVLSLDLHDINREPLIIHWAASPQRIEECVLSGKDVNGECGNFVRLIQPWNRTHLYVCGTGAYNPMCTYVNRGRRAQATPWTQTQAVRGRGSRATDGALRPMPTAPRQDYIFYLEPERLESGKGKCPYDPKLDTASALINEELYAGVYIDFMGTDAAIFRTLGKQTAMRTDQYNSRWLNDPSFIHAELIPDSAERNDDKLYFFFRERSAEAPQSPAVYARIGRICLNDDGGHCCLVNKWSTFLKARLVCSVPGEDGIETHFDELQDVFVQQTQDVRNPVIYAVFTSSGSVFRGSAVCVYSMADIRMVFNGPFAHKEGPNYQWMPFSGKMPYPRPGTCPGGTFTPSMKSTKDYPDEVINFMRSHPLMYQAVYPLQRRPLVVRTGAPYRLTTIAVDQVDAADGRYEVLFLGTDRGTVQKVIVLPKDDQELEELMLEEVEVFKDPAPVKTMTISSKRQQLYVASAVGVTHLSLHRCQAYGAACADCCLARDPYCAWDGQACSRYTASSKRRSRRQDVRHGNPIRQCRGFNSNANKNAVESVQYGVAGSAAFLECQPRSPQATVKWLFQRDPGDRRREIRAEDRFLRTEQGLLLRALQLSDRGLYSCTATENNFKHVVTRVQLHVLGRDAVHAALFPPLSMSAPPPPGAGPPTPPYQELAQLLAQPEVGLIHQYCQGYWRHVPPSPREAPGAPRSPEPQDQKKPRNRRHHPPDT
modifications: His-Myc tag
notes: Human recombinant full-length His-Myc-tagged SEMA3F, secreted by transfected 293T cells and purified; class 3 semaphorin, NRP-2 ligand
For the molecule B1, in the experiment with RhoA (U87MG cells overexpressing mTOR), the “RhoA activity partially rescued (by)” value was 55%. In addition, in the experiment on RhoA (control pcDNA3.1-transfected U87MG cells), the “suppression of RhoA activity” value was found to be 88%. Further, in the experiment on VEGF promoter (SEMA3F 640 ng/ml pre-treatment 30 minutes, DFO 250 μM, 18 hours), the “inhibition of DFO-induced VEGF promoter activity” value is recorded as 43%. In the experiment with VEGF promoter (SEMA3F 640 ng/ml, 18 hours culture in 1% O2), the “reduction of hypoxia-induced VEGF promoter activity” value was 44%. In addition, the “VEGF promoter activity in 2DAkt transfected cells” value in the experiment on VEGF promoter (SEMA3F 30 minutes prior to DFO) is given as “failed to attenuate VEGF promoter activity”.
